B1: BicD2-CTD (C-terminal cargo-binding domain of human Bicaudal D2, residues 715-804) [human] / full-length GTP-bound Rab6a/Q72L with N-terminal GST tag [human] (parent complex)
chain 1: YENEKAMVTETMMKLRNELKALKEDAATFSSLRAMFATRCDEYITQLDEMQRQLAAAEDEKKTLNSLLRMAIQQKLALTQRLELLELDHE
chain 2: MSTGGDFGNPLRKFKLVFLGEQSVGKTSLITRFMYDSFDNTYQATIGIDFLSKTMYLEDRTVRLQLWDTAGLERFRSLIPSYIRDSTVAVVVYDITNVNSFQQTTKWIDDVRTERGSDVIIMLVGNKTDLADKRQVSIEEGERKAKELNVMFIETSAKAGYNVKQLFRRVAAALPGMESTQDRSREDMIDIKLEKPQEQPVSEGGCSC

Variants of: B1
Assay: GST pull-down, SDS-PAGE band quantification; parent: 1; read off a plot

| Variant | ratio to parent |
| --- | --- |
| chain 2 F75A | ~0.02 |
| chain 2 P80A | ~0.75 |
| chain 2 Y42A | ~0.38 |
| chain 2 S77A | ~0.86 |
| chain 2 Q43A | ~1 |
| chain 2 S52A | ~1 |
| chain 2 R63A | ~0.07 |
| chain 2 I79A | ~0.1 |
| chain 2 T54A | ~0.79 |
| chain 2 R84A | ~1 |
| chain 2 I48A | ~1.3 |
| chain 2 F50A | ~0.37 |
| chain 2 S81A | ~1 |
| chain 2 I83A | ~0.02 |
| chain 2 Y35A | ~0.4 |
| chain 2 D49A | ~0.04 |
| chain 2 Q65A | ~0.48 |
| chain 2 L51A | ~1.1 |
| chain 2 D85A | ~0.99 |
| chain 2 R74A | ~0.95 |
| chain 2 L78A | ~0.57 |
| chain 2 I46A | ~0.07 |
| chain 2 K53A | ~0.01 |
| chain 2 Y82A | ~0.16 |
